Results on 9 variants are retold here after IntAct's records for PubMed 17981123.

B1: Serine endoprotease DegS (Escherichia coli (strain K12)), P0AEE3 (parent)
chain: MFVKLLRSVAIGLIVGAILLVAMPSLRSLNPLSTPQFDSTDETPASYNLAVRRAAPAVVNVYNRGLNTNSHNQLEIRTLGSGVIMDQRGYIITNKHVINDADQIIVALQDGRVFEALLVGSDSLTDLAVLKINATGGLPTIPINARRVPHIGDVVLAIGNPYNLGQTITQGIISATGRIGLNPTGRQNFLQTDASINHGNSGGALVNSLGELMGINTLSFDKSNDGETPEGIGFAIPFQLATKIMDKLIRDGRVIRGYIGIGGREIAPLHAQGGGIDQLQGIVVNEVSPDGPAANAGIQVNDLIISVDNKPAISALETMDQVAEIRPGSVIPVVVMRDDKQLTLQVTIQEYPATN
partner: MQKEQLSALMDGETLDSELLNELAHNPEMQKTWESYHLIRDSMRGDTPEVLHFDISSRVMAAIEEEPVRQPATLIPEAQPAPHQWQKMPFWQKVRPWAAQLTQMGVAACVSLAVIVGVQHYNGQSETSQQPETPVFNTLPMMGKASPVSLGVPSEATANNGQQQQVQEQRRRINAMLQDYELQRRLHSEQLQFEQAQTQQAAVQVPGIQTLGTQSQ

The assay covers variants of B1. The conditions noted are these: with rsea_ecoli rseA.
On to MFVKLLRSVAIGLIVGAILLVAMPSLRSLNPLSTPQFDSTDETPASYNLAVRRAAPAVVNVYNRGLNTNSHNQLEIRTLGSGVIMDQRGYIITNKHVINDADQIIVALQDGRVFEALLVGSDSLTDLAVLKINATGGLPTIPINARRVPHIGDVVLAIGNPYNLGQTITQGIISATGRIGLNPTGRQNFLQTDASINHGNSGGALVNSLGELMGINTLSFDKSNDGATPEGIGFAIPFQLATKIMDKLIRDGRVIRGYIGIGGREIAPLHAQGGGIDQLQGIVVNEVSPDGPAANAGIQVNDLIISVDNKPAISALETMDQVAEIRPGSVIPVVVMRDDKQLTLQVTIQEYPATN [E227A], for which the “effect of a mutation on the interaction” value was “increasing interaction”.

Turning to MFVKLLRSVAIGLIVGAILLVAMPSLRSLNPLSTPQFDSTDETPASYNLAVRRAAPAVVNVYNRGLNTNSHNQLEIRTLGSGVIMDQRGYIITNKHVINDADQIIVALQDGRVFEALLVGSDSLTDLAVLKINATGGLPTIPINARRVPHIGDVVLAIGNPYNLGQTITQGIISATGAIGLNPTGRQNFLQTDASINHGNSGGALVNSLGELMGINTLSFDKSNDGETPEGIGFAIPFQLATKIMDKLIRDGRVIRGYIGIGGREIAPLHAQGGGIDQLQGIVVNEVSPDGPAANAGIQVNDLIISVDNKPAISALETMDQVAEIRPGSVIPVVVMRDDKQLTLQVTIQEYPATN [R178A], the “effect of a mutation on the interaction” value was “decreasing interaction”. As for MFVKLLRSVAIGLIVGAILLVAMPSLRSLNPLSTPQFDSTDETPASYNLAVRRAAPAVVNVYNRGLNTNSHNQLEIRTLGSGVIMDQRGYIITNKHVINDADQIIVALQDGRVFEALLVGSDSLTDLAVLKINATGGLPTIPINARRVPHIGDVVLAIGNPYNLGQTITQGIISATGRIGLNPTGRQNFLQTDASINHGNSGGALVNSLGELMGINTLSFDKSNDGETPEGIGFAIPFQLATKIMDKLIRDGRVIRGYIGIGGREIAPLHAQGGGIDQLQGIVVNEVSPDGPAANAGIQVNDLIISVDNKPAISALETMAQVAEIRPGSVIPVVVMRDDKQLTLQVTIQEYPATN [D320A], the “effect of a mutation on the interaction” value is “increasing interaction”. As for MFVKLLRSVAIGLIVGAILLVAMPSLRSLNPLSTPQFDSTDETPASYNLAVRRAAPAVVNVYNRGLNTNSHNQLEIRTLGSGVIMDQRGYIITNKHVINDADQIIVALQDGRVFEALLVGSASLTDLAVLKINATGGLPTIPINARRVPHIGDVVLAIGNPYNLGQTITQGIISATGRIGLNPTGRQNFLQTDASINHGNSGGALVNSLGELMGINTLSFDKSNDGETPEGIGFAIPFQLATKIMDKLIRDGRVIRGYIGIGGREIAPLHAQGGGIDQLQGIVVNEVSPDGPAANAGIQVNDLIISVDNKPAISALETMDQVAEIRPGSVIPVVVMRDDKQLTLQVTIQEYPATN [D122A], the “effect of a mutation on the interaction” value is “decreasing interaction”. With MFVKLLRSVAIGLIVGAILLVAMPSLRSLNPLSTPQFDSTDETPASYNLAVRRAAPAVVNVYNRGLNTNSHNQLEIRTLGSGVIMDQRGYIITNKHVINDADQIIVALQDGRVFEALLVGSDSLTDLAVLKINATGGLPTIPINARRVPHIGDVVLAIGNPYNLGQTITQGIISATGRIGLNPTGRQNFLQTDASINHGNSGGALVNSLGELMGINTLSFDKSNDGETPEGIGFAIPFQLATKIMDKLIRDGRVIDGYIGIGGREIAPLHAQGGGIDQLQGIVVNEVSPDGPAANAGIQVNDLIISVDNKPAISALETMDQVAEIRPGSVIPVVVMRDDKQLTLQVTIQEYPATN [R256D], the “effect of a mutation on the interaction” value was “decreasing interaction”. Turning to MFVKLLRSVAIGLIVGAILLVAMPSLRSLNPLSTPQFDSTDETPASYNLAVRRAAPAVVNVYNRGLNTNSHNQLEIRTLGSGVIMDQRGYIITNKHVINDADQIIVALQDGRVFEALLVGSDSLTDLAVLKINATGGLPTIPINARRVPHIGDVVLAIGNPYNLGQTITQGIISATGRIGLNPTGRQNFLQTDASINHGNSGGALVNSLGELMGINTLSFDKSNDGETPEGIGFAIPFQLATKIMDKLIRDGRVIAGYIGIGGREIAPLHAQGGGIDQLQGIVVNEVSPDGPAANAGIQVNDLIISVDNKPAISALETMDQVAEIRPGSVIPVVVMRDDKQLTLQVTIQEYPATN [R256A], the “effect of a mutation on the interaction” value is on record as “increasing interaction”.

Consider MFVKLLRSVAIGLIVGAILLVAMPSLRSLNPLSTPQFDSTDETPASYNLAVRRAAPAVVNVYNRGLNTNSHNQLEIRTLGSGVIMDQRGYIITNKHVINDADQIIVALQDGRVFEALLVGSDSLTDLAVLKINATGGLPTIPINARRVPHIGDVVLAIGNPYNLGQTITQGIISATGRIGLNPTGRQNFLQTDASINHGNSGGALVNSLGELMGINTLSFDKSNDGETPEGIGFAIPFQLATDIMDKLIRDGRVIRGYIGIGGREIAPLHAQGGGIDQLQGIVVNEVSPDGPAANAGIQVNDLIISVDNKPAISALETMDQVAEIRPGSVIPVVVMRDDKQLTLQVTIQEYPATN [K243D], for which the “effect of a mutation on the interaction” value was “increasing interaction”. In the case of MFVKLLRSVAIGLIVGAILLVAMPSLRSLNPLSTPQFDSTDETPASYNLAVRRAAPAVVNVYNRGLNTNSHNQLEIRTLGSGVIMDQRGYIITNKHVINDADQIIVALQDGRVFEALLVGSDSLTDLAVLKINATGGLPTIPINARRVPHIGDVVLAIGNPANLGQTITQGIISATGRIGLNPTGRQNFLQTDASINHGNSGGALVNSLGELMGINTLSFDKSNDGETPEGIGFAIPFQLATKIMDKLIRDGRVIRGYIGIGGREIAPLHAQGGGIDQLQGIVVNEVSPDGPAANAGIQVNDLIISVDNKPAISALETMDQVAEIRPGSVIPVVVMRDDKQLTLQVTIQEYPATN [Y162A], the “effect of a mutation on the interaction” value is “disrupting interaction”.

For MFVKLLRSVAIGLIVGAILLVAMPSLRSLNPLSTPQFDSTDETPASYNLAVRRAAPAVVNVYNRGLNTNSHNQLEIRTLGSGVIMDQRGYIITNKHVINDADQIIVALQDGRVFEALLVGSDSLTDLAVLKINATGGLPTIPINARRVPHIGDVVLAIGNPFNLGQTITQGIISATGRIGLNPTGRQNFLQTDASINHGNSGGALVNSLGELMGINTLSFDKSNDGETPEGIGFAIPFQLATKIMDKLIRDGRVIRGYIGIGGREIAPLHAQGGGIDQLQGIVVNEVSPDGPAANAGIQVNDLIISVDNKPAISALETMDQVAEIRPGSVIPVVVMRDDKQLTLQVTIQEYPATN [Y162F], the “effect of a mutation on the interaction” value is reported as “decreasing interaction”.
